Patent publication US20250388669A1 (published 2025)

Legend:
CD40 = target: T1, CD40 (human, UniProt P25942 21-193); assay: CD40 binding (method not given)
T1 construct: In the reporter assay it is whole, on GS-H2-huCD40 cells; also called huCD40

CD137 = target: T2, CD137 (human, UniProt Q07011 24-186); assay: CD137 binding (method not given)
T2 construct: In the reporter assay it is whole, on GS-H2-huCD137 cells; also called 4-1BB; huCD137

T1 sequence (P25942 21-193 limits assumed): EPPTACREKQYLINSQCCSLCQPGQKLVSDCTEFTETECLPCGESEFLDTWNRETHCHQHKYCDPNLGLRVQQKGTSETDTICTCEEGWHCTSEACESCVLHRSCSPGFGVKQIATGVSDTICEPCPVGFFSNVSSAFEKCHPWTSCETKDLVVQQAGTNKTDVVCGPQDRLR

EC50 (CD40)	EC50 (CD137)	Binder
0.48 µg/mL		TM383 (antibody, V domains shown, Parent mAb; also called Anti-CD40 TM383; parent CD40 mAb) VH: not shown VL: DIQMTQSPSSVSASVGDRVTITCRASQGIYSWLAWYQQKPGKAPNLLIYTASTLQSGVPSRFSGSGSGTDFTLTISSLQPEDFATYYCQQANIFPLTFGGGTKVEIK
	2.56 µg/mL	Ly2281 (bispecific antibody, PD-1 Fabs, central CD137 Fv) chain 1: QVTLKESGPALVKPTQTLTLTCTFSGFSLSTSGTCVSWIRQPPGKALEWLATICWEDSKGYNPSLKSRLTISKDTSKNQAVLTMTNMDPVDTATYYCARREDSGYFWFPYWGQGTLVTVSSASTKGPSVFPLAPSSKSTSGGTAALGCLVKDYFPEPVTVSWNSGALTSGVHTFPAVLQSSGLYSLSSVVTVPSSSLGTQTYICNVNHKPSNTKVDKKVEPKSCGGGGSGGGGSGGGGSGGGGSQVQLVQSGAEVKKPGASVKVSCKASGYTFAGFEMHWVRQAPGQGLEWMGAIDPKTGGTDYNQKFKDRVTMTRDTSISTAYMELSRLRSDDTAVYYCARDLGYFDVWGQGTLVTVSSGGGGSDKTHTCPPCPAPEAAGPSVFLFPPKPKDTLMISRTPEVTCVVVDVSHEDPEVKFNWYVDGVEVHNAKTKPREEQYNSTYRVVSVLTVLHQDWLNGKEYKCKVSNKALPAPIEKTISKAKGQPREPQVYTLPPSREEMTKNQVSLWCLVKGFYPSDIAVEWESNGQPENNYKTTPPVLDSDGSFFLYSKLTVDKSRWQQGNVFSCSVMHEALHNHYTQKSLSLSPG chain 2: QVTLKESGPALVKPTQTLTLTCTFSGFSLSTSGTCVSWIRQPPGKALEWLATICWEDSKGYNPSLKSRLTISKDTSKNQAVLTMTNMDPVDTATYYCARREDSGYFWFPYWGQGTLVTVSSASTKGPSVFPLAPSSKSTSGGTAALGCLVKDYFPEPVTVSWNSGALTSGVHTFPAVLQSSGLYSLSSVVTVPSSSLGTQTYICNVNHKPSNTKVDKKVEPKSCGGGGSGGGGSGGGGSGGGGSDIQMTQSPSSLSASVGDRVTITCRASQDIRSNLNWYQQKPGGAVKLLIYYTSRLHSGVPSRFSGSGSGTDYTLTISSLQPEDFATYFCQQSEKLPRTFGGGTKVEIRGGGGSDKTHTCPPCPAPEAAGPSVFLFPPKPKDTLMISRTPEVTCVVVDVSHEDPEVKFNWYVDGVEVHNAKTKPREEQYNSTYRVVSVLTVLHQDWLNGKEYKCKVSNKALPAPIEKTISKAKGQPREPQVYTLPPSREEMTKNQVSLSCAVKGFYPSDIAVEWESNGQPENNYKTTPPVLDSDGSFFLVSKLTVDKSRWQQGNVFSCSVMHEALHNRFTQKSLSLSPG light: NIQMTQSPSSLSASVGDRVTITCKAGQNVNNYLAWYQQKPGKAPKVLIFNANSLQTGVPSRFSGSGSGTDFTLTISSLQPEDFATYYCQQYNSWPTFGGGTKVEIKRTVAAPSVFIFPPSDEQLKSGTASVVCLLNNFYPREAKVQWKVDNALQSGNSQESVTEQDSKDSTYSLSSTLTLSKADYEKHKVYACEVTHQGLSSPVTKSFNRGEC
	1.78 µg/mL	Ly2118 (other, Tri-specific antibody: B7H3 Fabs, central CD137 Fv, terminal PD-1 Fv) chain 1: QVQLVQSGAEVKKPGASVKVSCKASGYTFTSYVMHWVRQKPGQGLEWIGYINPYNEGTESTDKFKGRATMTSDKSTSTVYMELSSLRSEDTAVYYCASIYYGYEGTYFGVWGQGTLVTVSSASTKGPSVFPLAPSSKSTSGGTAALGCLVKDYFPEPVTVSWNSGALTSGVHTFPAVLQSSGLYSLSSVVTVPSSSLGTQTYICNVNHKPSNTKVDKKVEPKSCGGGGSGGGGSGGGGSGGGGSQVQLVQSGAEVKKPGASVKVSCKASGYTFAGFEMHWVRQAPGQGLEWMGAIDPKTGGTDYNQKFKDRVTMTRDTSISTAYMELSRLRSDDTAVYYCARDLGYFDVWGQGTLVTVSSGGGGSDKTHTCPPCPAPEAAGPSVFLFPPKPKDTLMISRTPEVTCVVVDVSHEDPEVKFNWYVDGVEVHNAKTKPREEQYNSTYRVVSVLTVLHQDWLNGKEYKCKVSNKALPAPIEKTISKAKGQPREPQVYTLPPSREEMTKNQVSLWCLVKGFYPSDIAVEWESNGQPENNYKTTPPVLDSDGSFFLYSKLTVDKSRWQQGNVFSCSVMHEALHNHYTQKSLSLSPGGGGGSGGGGSGGGGSGGGGSQVTLKESGPALVKPTQTLTLTCTFSGFSLSTSGTCVSWIRQPPGKALEWLATICWEDSKGYNPSLKSRLTISKDTSKNQAVLTMTNMDPVDTATYYCARREDSGYFWFPYWGQGTLVTVSS chain 2: QVQLVQSGAEVKKPGASVKVSCKASGYTFTSYVMHWVRQKPGQGLEWIGYINPYNEGTESTDKFKGRATMTSDKSTSTVYMELSSLRSEDTAVYYCASIYYGYEGTYFGVWGQGTLVTVSSASTKGPSVFPLAPSSKSTSGGTAALGCLVKDYFPEPVTVSWNSGALTSGVHTFPAVLQSSGLYSLSSVVTVPSSSLGTQTYICNVNHKPSNTKVDKKVEPKSCGGGGSGGGGSGGGGSGGGGSDIQMTQSPSSLSASVGDRVTITCRASQDIRSNLNWYQQKPGGAVKLLIYYTSRLHSGVPSRFSGSGSGTDYTLTISSLQPEDFATYFCQQSEKLPRTFGGGTKVEIRGGGGSDKTHTCPPCPAPEAAGPSVFLFPPKPKDTLMISRTPEVTCVVVDVSHEDPEVKFNWYVDGVEVHNAKTKPREEQYNSTYRVVSVLTVLHQDWLNGKEYKCKVSNKALPAPIEKTISKAKGQPREPQVYTLPPSREEMTKNQVSLSCAVKGFYPSDIAVEWESNGQPENNYKTTPPVLDSDGSFFLVSKLTVDKSRWQQGNVFSCSVMHEALHNRFTQKSLSLSPGGGGGSGGGGSGGGGSGGGGSNIQMTQSPSSLSASVGDRVTITCKAGQNVNNYLAWYQQKPGKAPKVLIFNANSLQTGVPSRFSGSGSGTDFTLTISSLQPEDFATYYCQQYNSWPTFGGGTKVEIK light: EIVLTQSPATLSLSPGERATLSCRASSSVSYMHWYQQKPGQAPRPWIYATSNLASGIPARFSGSRSGTDYTLTISSLEPEDFAVYYCQQWSSNTLTFGGGTKVEIKRTVAAPSVFIFPPSDEQLKSGTASVVCLLNNFYPREAKVQWKVDNALQSGNSQESVTEQDSKDSTYSLSSTLTLSKADYEKHKVYACEVTHQGLSSPVTKSFNRGEC
1.49 µg/mL		Ly2279 (bispecific antibody, B7H3 Fabs, central CD40 Fv) chain 1: not shown chain 2: QVQLVQSGAEVKKPGASVKVSCKASGYTFTSYVMHWVRQKPGQGLEWIGYINPYNEGTESTDKFKGRATMTSDKSTSTVYMELSSLRSEDTAVYYCASIYYGYEGTYFGVWGQGTLVTVSSASTKGPSVFPLAPSSKSTSGGTAALGCLVKDYFPEPVTVSWNSGALTSGVHTFPAVLQSSGLYSLSSVVTVPSSSLGTQTYICNVNHKPSNTKVDKKVEPKSCGGGGSGGGGSGGGGSGGGGSDIQMTQSPSSVSASVGDRVTITCRASQGIYSWLAWYQQKPGKAPNLLIYTASTLQSGVPSRFSGSGSGTDFTLTISSLQPEDFATYYCQQANIFPLTFGGGTKVEIKGGGGSDKTHTCPPCPAPEAAGPSVFLFPPKPKDTLMISRTPEVTCVVVDVSHEDPEVKFNWYVDGVEVHNAKTKPREEQYNSTYRVVSVLTVLHQDWLNGKEYKCKVSNKALPAPIEKTISKAKGQPREPQVYTLPPSREEMTKNQVSLSCAVKGFYPSDIAVEWESNGQPENNYKTTPPVLDSDGSFFLVSKLTVDKSRWQQGNVFSCSVMHEALHNRFTQKSLSLSPG light: EIVLTQSPATLSLSPGERATLSCRASSSVSYMHWYQQKPGQAPRPWIYATSNLASGIPARFSGSRSGTDYTLTISSLEPEDFAVYYCQQWSSNTLTFGGGTKVEIKRTVAAPSVFIFPPSDEQLKSGTASVVCLLNNFYPREAKVQWKVDNALQSGNSQESVTEQDSKDSTYSLSSTLTLSKADYEKHKVYACEVTHQGLSSPVTKSFNRGEC
